Data taken from PMC9468151, “Identification of a binding site on soluble RANKL that can be targeted to inhibit soluble RANK-RANKL interactions and treat osteoporosis” (Nature Communications, 2022).

Biological target: the molecule itself
Experiment: cross-linking; cross-link assay of sRANKL with S3-15; methods not shown

B1: label-free rat sRANKL (wild type) (ligand, UniProt Q9ESE2 160-318, looked up)
chain: KPEAQPFAHLTINAADIPSGSHKVSLSSWYHDRGWAKISNMTLSNGKLRVNQDGFYYLYANICFRHHETSGSVPADYLQLMVYVVKTSIKIPSSHNLMKGGSTKNWSGNSEFHFYSINVGGFFKLRAGEEISVQVSNPSLLDPDQDATYFGAFKVQDID
notes: RANKL, rat, soluble form sRANKL; also called WT sRANKL; soluble RANKL; source: E. coli BL21 (DE3), purified (Ni-NTA, released by Ulp1, HiLoad Superdex 200); not shown: His6, N-terminal, cleaved; SUMO, N-terminal, cleaved
In the case of B1, the “stoichiometry N” value is reported as 3.
